Data as given in the DeepSol protein solubility set.

Experiment: soluble on expression in E. coli; label from the status in PepcDB or PDB records

Sequence | soluble on expression in E. coli
MGSDKIHHHHHHMKYLKQYMIIGAVTMITSCSDFLDTAPLDALSPATTWKTEDDAQKFAIGCYGGNNYDTSSWEDGGNILYLDCGSDFGYNNFEWENYKTIGNGTMTPSGAVASFYDFSVIRRCNTFLEKVKEIPFSNEQTKNDLIGQVRTIRAYRYFVMNWWYGGVPVIDNYNSADEAKVPRKSEEEVKNYVNTELDTAIGELNASPSERGRIAKGAAMAIRMRSALYYGDYVKAKEMAEAIMNLKQYDLEPDYSNLFKVAGQDSKEIILAVQYVNSTLELGTIGQMYNNGDGGWSSIVPTQNLVDTYEMADGLTKEESGSYDPNHPFAGRDPRMAMTIIYPGMDWNGTVVNTLDKTINGKDNANYPPSANNASKTALTWRKYLDEQYANGIWNTNACPIVIRYAEVLLTYAEAVNELSGPSADVYDKLDLIRGRVGMPKVDREKYASKETLRRLIRRERGVELAGEGVRRADILRWKDDNGKMVAETVLNGVLERVVGTVNYAETDPTKRAEIDTNAPATDKKIEDRVFKVHNRYNPIPQGAIDNNPNLEQNPGY | not soluble
MSLIRDRTEPVMSAKLPPVEPVSPTNPRSSASPGSPDRSGLPVVVSVVGLVHTPGLVTLAPGARIADALQAAGGAVDGADTVGLNMARQLGDGEQIVVGLAPPSGQPRVLGSSVGAGTPGPAGTSGTATTGPKTAPKTAEVLDLNTATVEQLDALPGIGPVTAAAIVAWRQRNGRFTSVDQLADVDGIGPARLDKRRNLVRVEGHHHHHH | soluble
MGSDKIHHHHHHMTYPVVLVNVSRNTNAISFPMGLSVVANALLHHDITPQIIDLIPVMPDQRIDYFLRTMPKEPAIYGFSMMIGNFHLDHAEHYARLIKEHSPDSIVVYGGSLPSSVPELLVENCECDFVIHGEGEVVFPAFVKALREGESFPEGPGIFYKGADGQVVGTKAKRMRRLDHLSRQNYSLFDMDFYSGYFKEVGLSWEIMASRGCKAHCSFCYKFMGDGIGLREVGEVLDEIQYIMENYGITKFYFVDENFMQIKKYFYSFLEEKKNRGLNFTFIASSRIDEIDEERISIAKEHGLTALTTGVESVNQATLNAIDKRIDIEDAERAVKLLRQYGIRPHVNLIIGFEWESEDDYKAMLEFIERNDLRGTVKLSYLTPLPATRLYEDAKSRNKLGKPEFEYVRTLGNLYWELMVNMTNMPDELLKHYYALISDVGKETRALPVTPAYRQNLNDDLVMYKTVAAPSPPPAHAAWSLP | not soluble
MGSDKIHHHHHHMNFYRDATWVLEDIEKEAAKERISGSMQTLVLKSCKRYKLKSNPKHIYAVLDSCWKYKPYLEKVMKKAHILEDIPKKKGKPLFSRLTLLLLCHDLLLSKQKRIQMGKHPIKDYVLKFKSPLHSEMVKLKLKLKVRELSELVLSEDISNDLPPVRWIRINPLKCHPNGETEPVLAELRKKFTLKVDKWSELVPGSIYYDEFIPNLFGIHPSDKITAHELYKHGKIIIQDRASCFPAHILNPGPSDIVIDSCSAPGNKTTHTASYIYPEPPKDNNTRIYAFEKDPERAKVLQKMIKIAGCSPNISVNVGDFTKLATPEKYKDVTCFIVDPSCSGSGIFGRKFFDSFNRRKIDDKDDDGGIVPDEQEEFIAKEELQTRLAKLSSFQFQMVKHAMSFPAAKKIVYSTCSIHAEENERVVIDLLLDKSVREWGWKVAPKREVIPSWPRRGKVEEFEEVFRDGVTYDPQQLAEGCIRALPKSDGGIGFFAVCFERD | not soluble
MLMSLSRRELIKKEIFDIEEYVPGRSIEEIASTYGLKPESIIKLGSNENPLGPSPKAVKALIEAAPGANIYPSADAHELREALSKYTGFPVSNIVASGPGMDGLLDGLCRIIIEKGDEVIVPIPTFSYYELPARACGAEPVFIRRNQDFSLNPEKILEAVSPRTKIIFLCSPNNPSGNLLPEADLRKIIENTDALVFVDEAYVEFADRNLAALVNEYDNVAVGRTFSKVFGLAGLRLGYGIMPEWLTKEYLRAATPFSVSLPALRAGLAALSDTEYLNKSINLAREGREYLKEKIPFKVYPSQANFVLVDVSPLKAKKVTESLLKKGIIVRPCDSFREAGDSFIRVTVGTPEQNEKVVRAFEISKSEV | not soluble
VVGNMTPDFLGSVATTLTWKDLSLNVGLDMRFGGLVASYCNLYGTQAGWTESSLQYRDPEHGGMTWTSQYADSKGIQYTDGMIPEGVFKEGTIATLVDGTKMDVSGLSYAQLVQEGKLEPTHAGSWYGNNYAWGAQTIDDIWVHKLSYIALRNITINYRLPNSISHKLGAKGLNLSFSARNLGYLYNSLPNNLNPESVRSNSASEFRIRGFEPYTASYIFTINANF | not soluble
MTEHTAPTAPVADVCLLLEGTWPYVRGGVSSWVNQLILGLPDLTFSVFFIGGQKDAYGKRHYPIPDNVLHIEEHFLETAWSSPNPQTRQGSSETEKALRDLHRFFHYPETPDVEEGDALLDLLAEGRIGREDFLHSKASWEAITAGYERYCTDPSFVNYFWTLRSMQAPVFMLAEAARRMPRARMLHSISTGYAGLLGCILQRRWGCRYLLSEHGIYTKERKIDLAQANWIAENPDEQLSTGLDAEVSYIRRLWIRFFERVGLLTYRAANPIVALYEGNRQRQVLDGAEPRRTRVIPNGIDLDAWTGALERRPPGIPPVVGLVGRVVPIKDVKTFIRAMRGVVSAMPEAEGWIVGPEEEDPDYASECRSLVASLGLQDKVKFLGFRRIGEVLPQLGLMVLTSISEAQPLVILEAWAAGAPVVSSDVGSCRELIEGADAEDRALGRAGEVVAIADPQATSRAILALLRNPQRWQAAQAVGLQRVERYYTEALMLGRYRGLYREATEIA | not soluble
MAFICELDEQWSYVGSKARQHWLGYAYNTKTGGVLAYTFGPRTDQTCRELLALLTPFNIGMLTSDDWGSYGREVPKNKHLTGKIFTQRIERNNLTLRTRIKRLGRKTICFSRSVEIHEKVIGAFIEKHMFY | not soluble
MIKFGTGGWRAFIGEEFTKDNVRLVAQALANIIHHEQAANEGFVIGYDRRFLSDKAGRWFAEVLAANGVVVSFIDKFVPTPVVMFKAKAMDCAYSACITASHNPADYNGIKVFIRGGRDADEVITQKIEQQIATLTLQDVKSIDFDQAVNDKLIDIINPMNEFVDSIINFIDIEAIKKANLRVLIDPMFGVAKNALQTVLINGRCDVDVINDGKNPDFGGLMPSPSAATLYRLKHLVKHEGYDIGIGTDGDADRLGIIDEKGNFIHPNEVLILLYYYLLEYKGWKGSVVRNIATTHLLDKIAADHGERCFEVPVGFKHISSQMEADDSLIGGESSGGLTIRGHIKGKDGVFASSLLVEMISVTGKKLSELLTEIYDRYGYAYTAEGDCKFKPAQRDEIYNKVYIEKKLPEFEFDIDKVSYEDGAKVYFKNGGWVIARFSGTEPLLRIFAEMADKDTAERVLQQMKAFLAL | not soluble
TKDWNLDLTLNMSHNKNKVTKLVEEGRAQSAMDVVVQGSYADQVLAVGYPMGAFHGYEYAGIIQDQARIDELNAYAKSKGQSYYDGNSLKPGHLEIKDLNGDGIINYNDRVIIGNPDPDLFGGLTANLSYKQFSLFANFGYQIGGLKIYNKTLQNLPGQLTGLIDYGLNDRWSDTNKNAKYPALYIGDGVPRLTDHELFNASFFRLQEVRLTYNLPLNKVIKGQLFVSATNLFTLTSYPGTDPATVNSNSNYGGNYETSTYPGFRSFSAGLKINL | not soluble
MKKLKMKKLISLLLTLTMILALTACGAKETGKSQDESDLNYVKSKGKLIIGYTNYAPMNYTDENGVFTGFDTELAILTCEKLGVEPEFVEINWDTKEVELNAKSIDCIWNGLTIDDDRKAKMEITQPYVKNAQVVLVKEGTEYNGTESLIGKTVVAEQSSAGEKTIMADENLKKANYVPKTLQTDCLMELKSGTADAAVLDLTLAKTMTGEGTSYEDIVIVDYLAEENYGVAFRKGSDICAEVNKIFDDFLADGTMAALAEKYGLELAE | not soluble
SLSAAEADLAGKSWAPVFANKNANGDAFLVALFEKFPDSANFFADFKGKSVADIKASPKLRDHSSTIFTRLNEFVNNAANAGKMSAMLSQFAKEHVGFGVGSAQFENVRSMFPGFVASVAAPPAGADAAWTKLFGLIIDALKAAGK | soluble
MYEGLLIDIDYLLNVVKELKINFDKKIKTLNLLIERNIPIVLYTENNKEYVDTIMKYLKIKEPAIIVEGAQIYSPFDLSYEAVFPLSINTVCKLGNWAMDRKMDMSISTDKKVIDYSEWLKELRQVNYKNAGDKLPSAVKVDICMKNDDKRIELLNFIGKNNLECYAHMYLNHVACINSIVDKGNTLKYLANKKKWDIKKFAMIGDYSKDTSIFDEVGF | not soluble
